# Reference: IntAct's records for PubMed 19959993
# B1: Synaptonemal complex protein ZIP1 (Saccharomyces cerevisiae), P31111 (parent)
# chain: MSNFFRDSSMGFKPRPNIFAKLRVRDVDSDSSANTVVENSSNCLDVGSSIEGDDTFKKPHKTSTEQELITSMSLSQRNHGYSDDMEIGSPKKTTSTDQYNRILKNDVAAIENDTDEDFEITEVREVSEGVAKETKESHGDPNDSETTLKDSKMHEYTMTNGKAPLHTSINNSSTSSNDVLLEAFTNTQRICSNLKQELQKQQQDNAKLKVRLQSYASNSDKINEKVGKYKSCLETLQERIATLTSHKNNQETKLKDLRQNHQLYQRRISGFKTSIENLNKTINDLGKNKKEADAELMKKGKEIEYLKRELDDCSGQLSEEKIKNSSLIQEMGKNREEMIKSIENFFSEDKAHHLLQFNKFEERVHDLFEKKLQKHFDVAKDTLNVGLRNTTVELSSNTETMLKQQYEDIKENLEQKMSSSKDEMAKTINELSVTQKGLIMGVQEELLTSSGNIQTALVSEMNNTRQELLDDASQTAKNYASLENLVKAYKAEIVQSNEYEERIKHLESERSTLSSQKNQIISSLGTKEAQYEDLVKKLEAKNIEISQISGKEQSLTEKNENLSNELKKVQDQLEKLNNLNITTKSNYENKISSQNEIVKALVSENDTLKQRIQQLVEIKENEQKDHTTKLEAFQKNNEQLQKLNVEVVQLKAHELELEEQNRHLKNCLEKKETGVEESLSDVKTLKQQVIVLKSEKQDITAEKLELQDNLESLEEVTKNLQQKVQSQKRELEQKIKELEEIKNHKRNEPSKKGTQNFTKPSDSPKKNATTSNLFPNNSAAIHSPMKKCPKVDHISKSRINSSKETSKFNDEFDLSSSSNDDLELTNPSPIQIKPVRGKIKKGSNCMKPPISSRKKLLLVEDEDQSLKISKKRRRK
# partner: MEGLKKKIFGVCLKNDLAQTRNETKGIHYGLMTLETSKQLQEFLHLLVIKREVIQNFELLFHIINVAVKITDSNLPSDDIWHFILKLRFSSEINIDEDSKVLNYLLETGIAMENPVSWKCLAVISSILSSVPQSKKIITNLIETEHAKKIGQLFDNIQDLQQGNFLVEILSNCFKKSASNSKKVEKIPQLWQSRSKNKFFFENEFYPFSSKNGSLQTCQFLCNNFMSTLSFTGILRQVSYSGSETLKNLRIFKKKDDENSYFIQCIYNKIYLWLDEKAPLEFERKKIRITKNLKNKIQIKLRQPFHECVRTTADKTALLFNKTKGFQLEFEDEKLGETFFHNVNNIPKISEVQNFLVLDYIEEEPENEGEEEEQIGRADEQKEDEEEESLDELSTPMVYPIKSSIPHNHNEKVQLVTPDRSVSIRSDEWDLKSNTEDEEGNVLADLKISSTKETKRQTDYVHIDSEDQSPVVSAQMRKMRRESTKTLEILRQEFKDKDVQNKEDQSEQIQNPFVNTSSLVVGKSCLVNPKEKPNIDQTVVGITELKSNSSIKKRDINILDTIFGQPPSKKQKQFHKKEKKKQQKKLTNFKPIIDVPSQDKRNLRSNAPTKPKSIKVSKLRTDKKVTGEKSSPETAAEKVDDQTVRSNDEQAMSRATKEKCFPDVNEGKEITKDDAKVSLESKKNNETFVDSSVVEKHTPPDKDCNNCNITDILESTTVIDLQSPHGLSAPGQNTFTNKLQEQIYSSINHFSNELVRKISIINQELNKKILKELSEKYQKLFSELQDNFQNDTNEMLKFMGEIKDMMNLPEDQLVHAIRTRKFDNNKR
# B2: Protein RED1 (Saccharomyces cerevisiae), P14291 (parent)
# chain: B1 partner
# Variants of: B1
# Settings: with red1_yeast RED1, P14291
row,effect of a mutation on the interaction,Variant
1,decreasing interaction,Q864R
2,decreasing interaction,E862R
3,decreasing interaction,D863R

# Variants of: B2
# Settings: with smt3_yeast SMT3, Q12306
# Sequence of smt3_yeast SMT3, Q12306 (Q12306 whole entry): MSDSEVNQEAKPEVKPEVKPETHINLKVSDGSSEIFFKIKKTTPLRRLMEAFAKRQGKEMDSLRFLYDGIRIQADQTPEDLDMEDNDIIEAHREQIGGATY
row,effect of a mutation on the interaction,Variant
1,decreasing interaction,S715R
2,decreasing interaction,T717R

# Variants of: B2
# Settings: with smt3_yeast SMT3, Q12306
# Remark: another data set of the same source
row,effect of a mutation on the interaction,Variant
1,decreasing interaction,I758R
